The source of these data is PMC3858840.

Assay [1] concerns the target FERM domain of human moesin (residues 1–346) (human) (UniProt P26038). Nature of the assay: other fluorescence titration.
Assay [2] addresses TMR-CLS: TMR-labeled CLS_S329C (transmembrane and cytoplasmic domains of human L-selectin), in liposomes (human). Nature of the assay: other fluorescence titration.
For assay [3], the target named is TMR-ARR18, ARR18 with the N-terminal residue changed to cysteine and labelled with tetramethylrhodamine-5-maleimide (human). In words: other fluorescence titration.
The target in assay [4] is TMR-CLS: TMR-labeled CLS_S329C (transmembrane and cytoplasmic domains of human L-selectin), in liposomes (human). In words: other fluorescence titration. The source holds these as a separate data set.
Assay [5] has the same target. In words: other fluorescence titration. The source holds these as a separate data set.
Assay [6] shares this target. Nature of the assay: other fluorescence titration. The source holds these as a separate data set.
Assay [7] shares this target. Nature of the assay: other fluorescence titration. This is another data set of the same source.
Assay [8] shares this target. In words: other fluorescence titration. The source holds these as a separate data set.
Assay [9] concerns the target moesin-FERM/TMR-CLS complex in 15% POPS/85% POPC liposome (human) (UniProt P26038). Nature of the assay: other fluorescence titration.
In assay [10] the target is L-selectin cytoplasmic peptide cytoplasmic domain (Homo sapiens) (UniProt P14151). As to conditions: cited from earlier work.

Where two headings read alike, the source gives them in different places.

Sequence of FERM domain of human moesin (residues 1–346) (P26038 1-346): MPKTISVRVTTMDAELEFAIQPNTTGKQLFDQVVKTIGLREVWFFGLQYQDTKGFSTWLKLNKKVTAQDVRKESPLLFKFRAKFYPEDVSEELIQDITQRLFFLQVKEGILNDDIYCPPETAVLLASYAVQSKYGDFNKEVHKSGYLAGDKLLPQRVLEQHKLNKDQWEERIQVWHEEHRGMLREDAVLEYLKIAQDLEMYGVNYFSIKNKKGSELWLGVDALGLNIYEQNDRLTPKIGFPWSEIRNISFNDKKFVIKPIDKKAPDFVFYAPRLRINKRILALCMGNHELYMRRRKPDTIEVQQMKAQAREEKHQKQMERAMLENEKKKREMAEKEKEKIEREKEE
Sequence of moesin N-terminal fragment 1-296 (P26038 1-296): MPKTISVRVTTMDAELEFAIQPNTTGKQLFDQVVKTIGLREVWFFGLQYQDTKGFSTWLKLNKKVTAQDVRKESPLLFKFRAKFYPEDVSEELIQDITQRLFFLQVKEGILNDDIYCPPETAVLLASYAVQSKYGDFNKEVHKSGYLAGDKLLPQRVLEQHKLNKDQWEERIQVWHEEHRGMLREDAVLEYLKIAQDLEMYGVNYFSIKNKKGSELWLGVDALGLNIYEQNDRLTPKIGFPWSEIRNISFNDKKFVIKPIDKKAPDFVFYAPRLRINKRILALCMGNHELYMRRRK
Sequence of FERM domain of human moesin (residues 1–346) (human) (P26038 1-346): as the sequence (P26038 1-346) above

One may read the Kd as a measure of binding affinity in units of concentration. In turn, “ARR18, cytoplasmic domain peptide of human L-selectin (residues Ala317–Tyr334)” came in with a Kd in [1] of 196 nM.
For the substance “FERM domain of human moesin (residues 1–346) (from UniProt P26038 1-346) (domain or fragment)”, the Kd in [2] worked out at 70 nM; in assay [3] it was 214 nM; in [4], 302 nM; in assay [5] it was 74 nM; in assay [6], 67 nM; in assay [7], 133 nM. Further, the Kd in [8] came out at 96 nM.
For the substance “calmodulin (CaM), wild type (from UniProt P0DP23 1-149) (natural protein)”, the Kd in assay [9] stood at 800 nM.
Turning to “moesin N-terminal fragment 1-296 (from UniProt P26038)”, in assay [10], the Kd was 40 nM.
